Reference: US20240279288A1, “APPLICATION OF PLANT JAZ PROTEINS AND DERIVED POLYPEPTIDES IN PREVENTION AND TREATMENT OF HUMAN AND ANIMAL TUMORS” (ANYANG INSTITUTE OF SINO-COTTON INDUSTRY INNOVATION, priority 2021, published 2024)

Experiments:
[1] = tested on: Human ovarian cancer cells SKOV3 tumor; assay: Ovarian cancer mouse model in vivo, intratumoral injection; design: species or system nude mice; details: 5 mg/kg intratumoral injection every 2 days, 7 times
Description: Human ovarian cancer cells SKOV3 were cultured. Cells were digested by the trypsin before being used for tumor bearing. Cells were washed twice with PBS, followed by resuspending with PBS to a concentration of 1×10^8/mL. The cell suspension was subcutaneously injected into the axilla of nude mice, with an inoculation dose of 0.2 mL per nude mouse. After inoculation, nude mice were randomly assigned into two groups, which were PBS group and GhJAZ1 protein (5 mg/kg) treated group, respectively, with 8 mice in each group. After tumor inoculation, administration began when the tumor volume reached to about 50-100 mm^3. Administration by intratumoral injection was conducted every 2 days for a cycle of 14 days, in total of 7 times. Throughout the entire experiment, the body weight of nude mice was monitored while administration, and tumor size was measured using a vernier caliper according on the formula V=½×length×width×width, to calculate the tumor volume, and plot tumor growth curve. 14 days later, the tumor was removed, took images and weighted.

GhCOI1 = assay: Luciferase experiment in tobacco leaves with GhCOI1; assay type: binding, cotton; details: no fluorescence on the control
Excerpt: Method of the luciferase experiment: GhJAZ1 (corresponding encoding gene sequence set forth in SEQ ID No. 39) was subcloned into pCAMBIA-CLuc vector (Chen, H., et al. “Firefly Luciferase Complementation Imaging Assay for Protein-Protein Interactions in Plants.” Plant Physiology 146.2(2008):368-376.) between KpnI and SalI cleavage sites, and the transcription factors such as GhMYC2 (corresponding encoding gene sequence set forth in SEQ ID No. 72), GhNINJA (corresponding encoding gene sequence set forth in SEQ ID No. 74), and GhCOI1 (corresponding encoding gene sequence set forth in SEQ ID No. 80) were subcloned into pCAMBIA-NLuc (Chen, H., et al. “Firefly Luciferase Complementation Imaging Assay for Protein-Protein Interactions in Plants.” Plant Physiology 146.2(2008):368-376.) between KpnI and SalI cleavage sites, respectively. […] Luciferase substrates were applied at the infected leaves before taking images and placed in a dark room for at least 6 min to quench fluorescence, followed by observation on the Nightowl-II LB983 instrument, using IndigoBasic software under the luciferase-5 min setting conditions.

MCF7 breast cancer cells = assay: Apoptosis detection (Annexin V-FITC/PI), MCF7; assay type: cell-based, human; details: 0.691 μM, 24 h, vs PBS
Description: Apoptosis detection: cells were collected in 1.5 EP tubes and centrifuged at 300 g for 5 min, with the supernatant discarded, followed by collecting the cells, washing with PBS and resuspending. 1×10^5 resuspended cells were taken and centrifuged at 300 g for 5 min, with the supernatant discarded. The cells were washed with PBS, resuspended by adding 500 μl of diluted 1×Annexin V Binding Buffer working solution, and then a staining solution of 5 μL of Annexin V-FITC and 5 μL of propidium iodide (PI) were added and mixed well by vortex, followed by incubation at room temperature in the dark for 15-20 min, and detection on the instrument. Specifically, the Annexin V-FITC/PI fluorescent dual staining cell apoptosis detection kit (Wuhan Pricella Life Science & Technology Co., Ltd., Cat. No.: P-CA-201) was used.

[2] = tested on: normal breast epithelial cells MCF10A; assay: Cell cycle detection (PI DNA content), MCF10A; assay type: cell-based; details: 0.691 μM, 24 h, vs PBS
Description: Cell cycle detection: cells were moderately digested by trypsin, and collected by centrifugation with supernatant removed, and then cells were washed with PBS, and collected by centrifugation at 1,500 rpm for 5 minutes to prepare a single-cell suspension (at a concentration of 1×10^6/ml). 1 ml of single-cell suspension was then taken and centrifuged with the supernatant discarded, and then 500 μl of 70% pre-cooled ethanol were added to fix the cells overnight at 4° C. The next day, cells were collected by centrifugation, resuspended with 1 ml of PBS and centrifuged, and then 100 μl of RNase A solution were added to the cell pellet, followed by placement in water bath at 37° C. for 30 min, and then 400 μl of PI staining solution was added and mixed well, followed by incubation at 4° C. in dark for 30 min and detection on the instrument to record under red fluorescence at the excitation wavelength of 488 nm. Specifically, a DNA content detection kit (cell cycle) (Solarbio, Cat. No.: CA1510) was used.

MCF7 cells = assay: Apoptosis staining (Calcein AM/PI), fluorescence microscopy; assay type: cell-based, human; details: Calcein AM/PI staining vs PBS
Description: Method for apoptosis staining. Fluorescence microscopy detection: a. Seeding and culturing. Cells were seeded onto multiwell plates such as 96-well plates, cell culture dishes, or cell slides, and were treated in a certain way according to the experimental design. b. Washing (optionally). For adherent cells, the medium was removed, and cells were washed once with PBS. For suspended cells, cells were centrifuged at 250-1000×g at room temperature for 5 min, with the supernatant removed, followed by washing once with PBS. Phenol red or serum might interfere with the detection of this kit, therefore, a vacuum pump was preferred when removing the medium and PBS. PBS washing was not necessary in the case that the residual liquid can be sufficiently aspirated. c. Staining. An appropriate volume of Calcein AM/PI detection working solution (Beyotime Biotech. Inc., Calcein/PI Cell Viability and Cytotoxicity Detection Kit, Cat. No.: C2015) was added. Usually, 100 μl were added to each well for a 96-well plate, 250 μl for a 24-well plate, 500 μl for a 12-well plate, and 1 ml for a 6-well plate. Incubation was performed at 37° C. in dark for 30 min. […] After incubation, the staining effect was observed under a fluorescence microscope (with Calcein AM in green fluorescence, Ex/Em=494/517 nm; PI in red fluorescence, Ex/Em=535/617 nm). […]

Chain of GhCOI1 (as listed by the source): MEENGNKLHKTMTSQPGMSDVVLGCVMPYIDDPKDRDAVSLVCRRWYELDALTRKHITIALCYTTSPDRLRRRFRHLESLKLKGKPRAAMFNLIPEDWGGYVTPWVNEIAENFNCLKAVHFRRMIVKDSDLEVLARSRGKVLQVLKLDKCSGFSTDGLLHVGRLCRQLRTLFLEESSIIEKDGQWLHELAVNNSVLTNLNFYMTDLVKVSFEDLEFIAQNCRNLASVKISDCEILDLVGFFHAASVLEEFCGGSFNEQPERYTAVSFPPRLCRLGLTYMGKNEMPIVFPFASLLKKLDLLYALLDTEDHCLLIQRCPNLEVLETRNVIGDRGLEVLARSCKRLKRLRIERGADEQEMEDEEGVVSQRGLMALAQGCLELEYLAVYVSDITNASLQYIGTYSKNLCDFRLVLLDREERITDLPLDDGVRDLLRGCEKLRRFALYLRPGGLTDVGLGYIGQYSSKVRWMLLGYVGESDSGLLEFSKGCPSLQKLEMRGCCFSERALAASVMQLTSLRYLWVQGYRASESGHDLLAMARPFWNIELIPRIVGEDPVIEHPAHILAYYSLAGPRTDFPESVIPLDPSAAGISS

B1: GhJAZ1: cotton JAZ1 protein, gene number Gh_A05G0260, sequence SEQ ID No. 4; prokaryotically expressed with His tag, about 30 KD (protein)
chain: MSSCSESTAMKPARSPEKPSFAQTCNLLSQYLKEKGSFGDLSLGMTCNVEANGTPVVPPPTMNLFPLNDKSDDVCGRNGGNPKNLTSMDLFPQQAGLASKDDSPNKLEPQTAPMTIFYGGQVIVFNDFPANKAKEIMLLASNSSSQSNNSFNPIPFTSSIARSPIESSIGVPPTSKPVHPAQRAVPGDLPIARRASLHRFLEKRKDRITAKAPYQINNSAAAPSLSGDNKSWLGLAAQSP
modifications: His tag
notes: prokaryotically expressed with His tag, about 30 KD
volume of tumors vs control group ([1]; SKOV3 in nude mice): highly significantly lower
weight of tumors vs control group ([1]; tumors removed after 14 days): highly significantly lower
fluorescence with GhCOI1 after applying luciferase substrate (GhCOI1): weaker fluorescence
apoptosis rate of cancer cells (MCF7) (MCF7 breast cancer cells): increased
G2-M phase block in MCF10A cells [2]: no G2-M phase block
mortality rate of MCF7 cells (MCF7 cells): significantly increased
